Experimental data: patent US20240175038

Target: T1, IntC3 (mutant phage lambda integrase) (Enterobacteria phage lambda) (UniProt P03700)
T1 sequence: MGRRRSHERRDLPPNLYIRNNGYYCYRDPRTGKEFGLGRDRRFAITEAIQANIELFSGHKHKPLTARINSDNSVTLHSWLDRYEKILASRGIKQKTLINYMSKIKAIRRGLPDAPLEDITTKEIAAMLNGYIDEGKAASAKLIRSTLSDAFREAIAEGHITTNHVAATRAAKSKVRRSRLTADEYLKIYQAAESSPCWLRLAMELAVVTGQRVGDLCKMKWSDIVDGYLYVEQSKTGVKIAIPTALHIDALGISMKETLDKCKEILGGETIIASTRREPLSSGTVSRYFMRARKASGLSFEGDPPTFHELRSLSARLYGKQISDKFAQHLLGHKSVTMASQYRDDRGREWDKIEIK
Experiment: cell_activity
Conditions: E. coli MG1655-ISC, scIHF2 co-expressed, arabinose 70 min

Row | Substance | activity (% recombination) (recombination with attB homologue) | activity (% recombination) (recombination with attL homologue)
1 | 121 bp attL homologue in pattPhae2(attL) | > 90 | 
2 | 21 bp attB homologue in pattPhae2(attL) |  | > 90
